Laboratory results as given in US20100322948A1, “Bone morphogenetic protein (BMP)-binding domains of proteins of the repulsive guidance molecule (RGM) protein family and functional fragments thereof, and use of same” (ABBOTT GMBH & CO. KG, priority 2007, published 2010).

T1: BMP-4 (Homo sapiens, UniProt P12644)
T1 construct: purchased R&D Systems 314-BM
T1 sequence (P12644 293-408): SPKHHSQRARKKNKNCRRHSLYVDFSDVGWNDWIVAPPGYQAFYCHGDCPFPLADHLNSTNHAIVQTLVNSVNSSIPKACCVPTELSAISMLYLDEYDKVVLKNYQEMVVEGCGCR

T2: BMP-2 (Homo sapiens, UniProt P12643)
T2 construct: purchased R&D Systems 355-BM; host or cells: CHO cells (said of #355-BM in the BRE-Luc section)
T2 sequence (P12643 283-396): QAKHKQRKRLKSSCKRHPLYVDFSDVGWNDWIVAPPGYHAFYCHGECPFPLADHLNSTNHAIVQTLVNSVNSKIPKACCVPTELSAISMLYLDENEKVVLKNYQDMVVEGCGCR

B1: Fragment 2 (Fc fusion)
RGM A fragment fused to Fc: IIFKNFQECVDQKVYQAEMDELPAAFVDGSKNGGDKHGANSLKITEKVSGQHVEIQAKYIGTTIVVR
notes: also called 218-284-Fc
B2: RGMA-Fc: RGM A Fc fusion protein used as comparison for the fragments (protein)
chain: PCKILKCNSEFWSATSGSHAPASDDTPEFCAALRSYALCTRRTARTCRGDLAYHSAVHGIEDLMSQHNCSKDGPTSQPRLRTLPPAGDSQERSDSPEICHYEKSFHKHSATPNYTHCGLFGDPHLRTFTDRFQTCKVQGAWPLIDNNYLNVQATNTPVLPGSAATATSKLTIIFKNFQECVDQKVYQAEMDELPAAFVDGSKNGGDKHGANSLKITEKVSGQHVEIQAKYIGTTIVVRQVGRYLTFAVRMPEEVVNAVEDWDSQGLYLCLRGCPLNQQIDFQAFHTNAEGTGARRLAAASPAPTAPETFPYETAVAKCKEKLPVEDLYYQACVFDLLTTGDVNFTLAAYYALEDVKMLHSNKDKLHLYERTRDLPG
modifications: left off: a dimerising Fc or GST
notes: RGM A Fc fusion protein used as comparison for the fragments
B3: #789: 266-335 Fc 257 Stop no att (Fc fusion, human, UniProt Q96B86 266-335, looked up)
RGM A fragment fused to Fc: SGQHVEIQAKYIGTTIVVRQVGRYLTFAVRMPEEVVNAVEDWDSQGLYLCLRGCPLNQQIDFQAFHTNAE
notes: fragment; also called Fragment 3
B4: Recombinant human BMP-4 (ligand, UniProt P12644 293-408, looked up)
chain: T1 sequence (P12644 293-408)
notes: Bought protein; also called hBMP-4
B5: Recombinant human BMP-2 (ligand, UniProt P12643 283-396, looked up)
chain: T2 sequence (P12643 283-396)
notes: Bought protein; also called rhBMP-2; recombinant h BMP-2
B6: 47-168-Fc (#786) (Fc fusion)
chain: PCKILKCNSEFWSATSGSHAPASDDTPEFCAALRSYALCTRRTARTCRGDLAYHSAVHGIEDLMSQHNCSKDGPTSQPRLRTLPPAGDSQERSDSPEICHYEKSFHKHSATPNYTHCGLFGD
notes: Expressed in HEK293F cells; IgK leader left out; also called fragment 0; not shown: Factor Xa site from the vector; human IgG Fc (hIgG lambda hc 257-Stop)

Experiments:
[1] = target: B4; assay: ELISA, 218-284-Fc immobilised, BMP-4 titrated, detection with anti-BMP-4 biotin antibody
Protocol: (§1) The test was conducted according to test method 4, variant B above, with immobilization of the fusion proteins (1 mg/mL).

[2] = target: T1, BMP-4; assay: In vitro interaction test, variant B: immobilized RGMA-Fc fusion proteins, detection of BMP-4 binding
Protocol: (§2) Test Method 4: In Vitro Interaction Test for Determining the Interaction between RGMA and BMP-2 and -4
(§3) The interaction tests were carried out as described below:
(§4) Variant B: Immobilization of Various RGMA-Fc Fusion Proteins and Detection of the Binding of the BMP-2/ or -4 Protein
(§5) Immunoplate Cert. MaxiSorp F96 (Nunc, 439454)
(§6) RGMA-Fc fragments • Volume used: 2.5 μg/mL in Na2CO3; addition: 50 μL per well • 1 hour at 37° C. in damp chamber
(§7) 3. Washing step: • Wash 3× with PBS/0.02% Tween 20
(§8) 4. Blocking: • 3% BSA in PBS/0.02% Tween, 1 hour at 37° C. in damp chamber • Addition : 200 μL per well, incubation: 1 hour at 37° C. in damp chamber
(§9) Recombinant human BMP-2, Catalog No.: 355-BM, Company: R&D Systems; or
(§10) Recombinant human RGM A, R&D Systems; Prod. #2495-RM,
(§11) recombinant human BMP-4, Catalog No.: 314-BM, Company: R&D Systems;
(§12) Concentration in each case: 10 μg/mL
(§13) Dilution steps: in each case 1:2 with PBS/0.02% Tween 20
(§14) 6. Washing step: • Wash 3× with PBS/0.02% Tween 20
(§15) Anti-human BMP-4 biotin antibody; Catalog No.: BAM7572, 1:200 in 1% BSA-PBS-T
(§16) 8. Washing step: • Wash 3× with PBS/0.02% Tween 20
10. Washing step: • Wash 3× with PBS/0.02% Tween 20
ImmunoPure TMB substrate kit; (Pierce, #34021) • Development period: approximately 1-30 minutes • 1:1 mixture of […]; addition: 50 μL per well
12. Stop: • 2.5 M H2SO4; addition: 50 μL per well
The test was conducted according to test method 4, variant B above, with immobilization of the fusion proteins (1 mg/mL). The binding of BMP-4 was detected using anti-BMP-4 biotin antibodies.
(§17) The test was conducted according to test method 4, variant B above, with immobilization of the fusion proteins (1 mg/mL). The binding of BMP-4 and -2 was detected using anti-BMP-4 and anti-BMP-2 biotin antibodies, respectively.

[3] = target: T2, BMP-2; assay: In vitro interaction test, variant B: immobilized RGMA-Fc fusion proteins, detection of BMP-2 binding; conditions: Working Example 2, FIG. 4, anti-BMP-2 biotin antibodies
Protocol: as §2, §3, §4, §5, §6, §7, §8, §9, §10, §11, §12, §13, §14, §15, §16
10. Washing step: • Wash 3× with PBS/0.02% Tween 20 […]
as §17

[4] = target: B4; assay: ELISA, 266-335-Fc immobilised, BMP-4 titrated, detection with anti-BMP-4 biotin antibody
Protocol: as §1

[5] = target: B6; assay: ELISA, 47-168-Fc immobilised, BMP-4 titrated, detection with anti-BMP-4 biotin antibody
Protocol: as §1

[6] = target: B6; assay: ELISA, 47-168-Fc immobilised, BMP-2 titrated, detection with anti-BMP-2 biotin antibody
Protocol: as §1

[7] = target: B4; assay: ELISA, BMP-4 coated at 2.5 µg/mL, fragment #786-Fc from 0.5 µg/mL in 1:2 dilutions (triple values), detection anti-human Fc biotin 1:200 and Strep POD 1:5000
Description: The binding of the fusion proteins was detected using anti-human-antibodies.

Molecule: B1
binding result [1]: no binding

Molecule: B2
binding of BMP-4 ([2]; Working Example 1, FIG. 3, anti-BMP-4 biotin antibodies): Significant binding | binding of BMP-4 ([2]; Working Example 2, FIG. 4, anti-BMP-4 biotin antibodies): Significant binding | binding of BMP-2 [3]: Significant binding

Molecule: B3
binding result [4]: no binding

Molecule: B4
binding result [5]: binds

Molecule: B5
binding result [6]: binds

Molecule: B6
EC50 (read off the curve) [7]: ~5 ng/mL
